# Experimental data taken from US20110311550A1 (Scripps Research, published 2011).
# B1: MAb AR3C (antibody, V domains shown)
# VH: LEQSGAEVKKPGSSVKVSCETSGGTLDNYALNWVRQAPGQGLEWIGGVVPLFGTTRNAQKFQGRVTISDDKSTGTGHMELRSLRSEDTAVYYCVRSVTPRYCGGGFCYGEFDYWGQGTLVTVSS
# VL: ELTQSPATLSVSPGERATLSCRASQSVSSNLAWYQQKPGQAPRLLIYGASTRATGIPARFSGSGSGTEFTLTVSRLEPEDSAVYFCQQYYRSPLTFGGGTKVEIKR
# notes: also called IgG1 of Fab H3
# Legend:
# [1] = target: T1, vaccinia-expressed E1E2 complex, isolate HCV-1 (genotype 1a) (hepatitis C virus, isolate HCV-1, UniProt P26664 192-383; P26664 384-746); assay: competition ELISA on HCV-1 E1E2; competitor m36 (A4)
# [2] = target: T1, vaccinia-expressed E1E2 complex, …; assay: competition ELISA on HCV-1 E1E2; competitor m1 (AR1A)
# [3] = target: T1, vaccinia-expressed E1E2 complex, …; assay: competition ELISA on HCV-1 E1E2; competitor m2 (AR1B)
# [4] = target: T1, vaccinia-expressed E1E2 complex, …; assay: competition ELISA on HCV-1 E1E2; competitor m23 (H53)
# [5] = target: T1, vaccinia-expressed E1E2 complex, …; assay: competition ELISA on HCV-1 E1E2; competitor m4 (AR3A)
# [6] = target: T1, vaccinia-expressed E1E2 complex, …; assay: competition ELISA on HCV-1 E1E2; competitor m6 (AR3C)
# [7] = target: T1, vaccinia-expressed E1E2 complex, …; assay: competition ELISA on HCV-1 E1E2; competitor m24 (7/59)
# [8] = target: T1, vaccinia-expressed E1E2 complex, …; assay: competition ELISA on HCV-1 E1E2; competitor m25 (9/27)
# [9] = target: T1, vaccinia-expressed E1E2 complex, …; assay: competition ELISA on HCV-1 E1E2; competitor m26 (AP33)
# [10] = target: T1, vaccinia-expressed E1E2 complex, …; assay: competition ELISA on HCV-1 E1E2; competitor m28 (1/39)
# [11] = target: T1, vaccinia-expressed E1E2 complex, …; assay: competition ELISA on HCV-1 E1E2; competitor m33 (9/75)
# [12] = target: T1, vaccinia-expressed E1E2 complex, …; assay: competition ELISA on HCV-1 E1E2; competitor m34 (6/53)
# [13] = target: T2, E1E2 complex of HCV isolate H77 (genotype 1a), wild type (HCV isolate H77, UniProt P27958 192-383; P27958 384-746); assay: competition ELISA on H77 E1E2; competitor m37 (Fab N1)
# [14] = target: T2, E1E2 complex of HCV isolate H77 …; assay: competition ELISA on H77 E1E2; competitor m38 (Fab N2)
# [15] = target: T2, E1E2 complex of HCV isolate H77 …; assay: competition ELISA on H77 E1E2; competitor m39 (Fab N3)
# [16] = target: T2, E1E2 complex of HCV isolate H77 …; assay: competition ELISA on H77 E1E2; competitor m40 (Fab N4)
# [17] = target: T2, E1E2 complex of HCV isolate H77 …; assay: competition ELISA on H77 E1E2; competitor m42 (Fab P1)
# [18] = target: T2, E1E2 complex of HCV isolate H77 …; assay: competition ELISA on H77 E1E2; competitor m46 (Fab P4)
# [19] = target: T1, vaccinia-expressed E1E2 complex, …; assay: competition ELISA on HCV-1 E1E2; competitor m20 (CBH-2)
# [20] = target: T1, vaccinia-expressed E1E2 complex, …; assay: competition ELISA on HCV-1 E1E2; competitor m22 (CBH-7)
# [21] = target: T1, vaccinia-expressed E1E2 complex, …; assay: competition ELISA on HCV-1 E1E2; competitor m30 (7/16B)
binder,measurement,setting,value
B1,% residual binding,[1],93%
same,% residual binding,[2],34%
same,% residual binding,[3],91%
same,% residual binding,[4],77%
same,% residual binding,[5],9%
same,% residual binding,[6],8%
same,% residual binding,[7],95%
same,% residual binding,[8],62%
same,% residual binding,[9],33%
same,% residual binding,[10],83%
same,% residual binding,[11],51%
same,% residual binding,[12],105%
same,% residual binding,[13],146%
same,% residual binding,[14],116%
same,% residual binding,[15],92%
same,% residual binding,[16],112%
same,% residual binding,[17],131%
same,% residual binding,[18],155%
same,% residual binding,[19],65%
same,% residual binding,[20],39%
same,% residual binding,[21],99%
